In article PMC4288178, “CRISPR RNA binding and DNA target recognition by purified Cascade complexes from Escherichia coli”:

Legend:
[1] = target: T1, Cascade+ (Cascade co-expressed with g8 crRNA) (Escherichia coli (K12; expressed in …, UniProt Q46901;P76632;Q46899;Q46898;Q46897 1-502;1-160;1-363;1-224;1-199); assay: EMSA; EMSA: 20 mM Tris-HCl pH 8, 20 mM NaCl, 10 nM 32P probe, 30 min at 30 or 37 C, 6% native PAGE; loading 10 min at 30 C with crRNA (0.5 uM in Fig 3). Kd values are printed only in Fig 5A (not in the material); details: protein: recombinant; tags: N-terminal 6His on Cse1 (CasA); copies: 1;2;6;1;1; label: DNA 5'-32P; guide + target strand
T1 sequence 1: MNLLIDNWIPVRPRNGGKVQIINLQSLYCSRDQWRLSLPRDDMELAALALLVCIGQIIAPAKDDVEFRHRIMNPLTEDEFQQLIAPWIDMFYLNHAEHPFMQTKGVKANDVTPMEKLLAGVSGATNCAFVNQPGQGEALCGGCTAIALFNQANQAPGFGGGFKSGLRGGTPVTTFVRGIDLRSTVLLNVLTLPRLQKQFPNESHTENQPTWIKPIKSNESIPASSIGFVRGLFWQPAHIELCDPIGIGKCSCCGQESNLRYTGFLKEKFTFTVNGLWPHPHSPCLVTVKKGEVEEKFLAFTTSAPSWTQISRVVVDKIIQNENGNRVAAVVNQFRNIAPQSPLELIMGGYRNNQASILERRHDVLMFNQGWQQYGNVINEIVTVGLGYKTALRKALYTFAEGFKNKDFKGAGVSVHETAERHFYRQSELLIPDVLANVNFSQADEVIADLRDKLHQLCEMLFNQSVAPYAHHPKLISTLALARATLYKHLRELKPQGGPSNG
T1 sequence 2: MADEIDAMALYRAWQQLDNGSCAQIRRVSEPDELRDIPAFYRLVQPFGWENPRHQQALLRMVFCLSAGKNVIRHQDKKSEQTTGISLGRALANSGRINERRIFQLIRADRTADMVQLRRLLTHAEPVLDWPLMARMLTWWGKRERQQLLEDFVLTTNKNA
T1 sequence 3: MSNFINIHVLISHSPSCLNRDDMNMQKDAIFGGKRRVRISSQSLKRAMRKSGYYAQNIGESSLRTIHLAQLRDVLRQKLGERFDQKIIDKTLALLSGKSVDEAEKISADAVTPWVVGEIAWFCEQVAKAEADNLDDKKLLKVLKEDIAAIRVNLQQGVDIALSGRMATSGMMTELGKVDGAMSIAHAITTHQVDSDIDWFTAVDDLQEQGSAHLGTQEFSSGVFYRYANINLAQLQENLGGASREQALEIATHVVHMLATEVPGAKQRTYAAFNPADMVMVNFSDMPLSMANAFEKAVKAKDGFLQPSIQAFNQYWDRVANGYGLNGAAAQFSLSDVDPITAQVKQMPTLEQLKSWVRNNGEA
T1 sequence 4: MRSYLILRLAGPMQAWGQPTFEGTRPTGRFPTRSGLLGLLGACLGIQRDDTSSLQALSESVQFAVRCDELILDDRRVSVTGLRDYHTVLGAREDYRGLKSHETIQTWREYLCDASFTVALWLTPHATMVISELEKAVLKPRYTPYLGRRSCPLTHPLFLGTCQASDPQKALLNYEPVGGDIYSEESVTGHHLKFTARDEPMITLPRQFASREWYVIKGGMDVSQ
T1 sequence 5: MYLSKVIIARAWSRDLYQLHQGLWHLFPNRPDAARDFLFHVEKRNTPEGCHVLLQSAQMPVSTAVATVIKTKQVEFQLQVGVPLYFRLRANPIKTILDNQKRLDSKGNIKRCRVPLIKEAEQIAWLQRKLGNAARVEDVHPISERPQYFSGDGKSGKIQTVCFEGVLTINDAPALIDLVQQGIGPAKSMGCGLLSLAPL

Cascade- (crRNA-free …) [2] = target: T2, Cascade- (crRNA-free Cse1-Cse2-Cas7-Cas5-Cas6e) (Escherichia coli (K12; expressed in …, UniProt Q46901;P76632;Q46899;Q46898;Q46897 1-502;1-160;1-363;1-224;1-199); assay: EMSA; loaded with crRNA1; EMSA: 20 mM Tris-HCl pH 8, 20 mM NaCl, 10 nM 32P probe, 30 min at 30 or 37 C, 6% native PAGE; loading 10 min at 30 C with crRNA (0.5 uM in Fig 3). Kd values are printed only in Fig 5A (not in the material); details: protein: recombinant, tags: N-terminal 6His on Cse1 (CasA), copies: 1;2;6;1;1, label: DNA 5'-32P
T2 sequence 1: T1 sequence 1
T2 sequence 2: T1 sequence 2
T2 sequence 3: T1 sequence 3
T2 sequence 4: T1 sequence 4
T2 sequence 5: T1 sequence 5

[3] = target: T1, Cascade+ (Cascade co-expressed with g8 …); assay: EMSA; co-expressed crRNA; EMSA: 20 mM Tris-HCl pH 8, 20 mM NaCl, 10 nM 32P probe, 30 min at 30 or 37 C, 6% native PAGE; loading 10 min at 30 C with crRNA (0.5 uM in Fig 3). Kd values are printed only in Fig 5A (not in the material); details: protein: recombinant; tags: N-terminal 6His on Cse1 (CasA); copies: 1;2;6;1;1; label: DNA 5'-32P; guide + blunt duplex
Cascade- (crRNA-free …) [4] = target: T2, Cascade- (crRNA-free …); assay: EMSA; affinity slightly lower than crRNA1; EMSA: 20 mM Tris-HCl pH 8, 20 mM NaCl, 10 nM 32P probe, 30 min at 30 or 37 C, 6% native PAGE; loading 10 min at 30 C with crRNA (0.5 uM in Fig 3). Kd values are printed only in Fig 5A (not in the material); details: protein: recombinant, tags: N-terminal 6His on Cse1 (CasA), copies: 1;2;6;1;1
[5] = target: T1, Cascade+ (Cascade co-expressed with g8 …); assay: EMSA; co-expressed g8 crRNA; EMSA: 20 mM Tris-HCl pH 8, 20 mM NaCl, 10 nM 32P probe, 30 min at 30 or 37 C, 6% native PAGE; loading 10 min at 30 C with crRNA (0.5 uM in Fig 3). Kd values are printed only in Fig 5A (not in the material); details: protein: recombinant; tags: N-terminal 6His on Cse1 (CasA); copies: 1;2;6;1;1; label: 5'-32P; 3' handle hairpin
Cascade- (crRNA-free …) [6] = target: T2, Cascade- (crRNA-free …); assay: EMSA; EMSA: 20 mM Tris-HCl pH 8, 20 mM NaCl, 10 nM 32P probe, 30 min at 30 or 37 C, 6% native PAGE; loading 10 min at 30 C with crRNA (0.5 uM in Fig 3). Kd values are printed only in Fig 5A (not in the material); details: protein: recombinant; tags: N-terminal 6His on Cse1 (CasA); copies: 1;2;6;1;1; label: 5'-32P; 3' handle hairpin
Cascade- (crRNA-free …) [7] = target: T2, Cascade- (crRNA-free …); assay: EMSA; loaded with crRNA MS2; EMSA: 20 mM Tris-HCl pH 8, 20 mM NaCl, 10 nM 32P probe, 30 min at 30 or 37 C, 6% native PAGE; loading 10 min at 30 C with crRNA (0.5 uM in Fig 3). Kd values are printed only in Fig 5A (not in the material); details: protein: recombinant; tags: N-terminal 6His on Cse1 (CasA); copies: 1;2;6;1;1; label: DNA 5'-32P; guide + blunt duplex

B1: g8 crRNA + g8 ssDNA (mixed)
RNA: AUAAACCGCUGUCUUUCGCUGCUGAGGGUGACGAUCCGCCGAGUUCCCCGCGCCAGCGGGG
DNA: CAGGGAGTTAAAGGCCGCTTTTGCGGGATCGTCACCCTCAGCAGCGAAAGACAGCATCGGAACGAGGGTAGCAACGGCT
- binding result [1]: binds
- binding result (Cascade- (crRNA-free …) [2]; guide + target strand): binds

B2: g8 crRNA1 + g8 dsDNA (mixed)
RNA: B1 RNA
DNA 1: B1 DNA
DNA 2: AGCCGTTGCTACCCTCGTTCCGATGCTGTCTTTCGCTGCTGAGGGTGACGATCCCGCAAAAGCGGCCTTTAACTCCCTG
modifications: 2',3'-cyclic phosphate on crRNA
- binding result [3]: binds
- binding result (Cascade- (crRNA-free …) [2]; guide + blunt duplex): binds

B3: crRNA7 (-8/+5) + g8 dsDNA (mixed)
RNA: AUAAACCGCUGUCUUUCGCUGCUGAGGGUGACGAUCCGCCGAGUU
DNA 1: B1 DNA
DNA 2: B2 DNA 2
- binding result (Cascade- (crRNA-free …) [4]; label: DNA 5'-32P, guide + blunt duplex): binds

B4: crRNA1 (-8/+21) (structured_RNA)
RNA: B1 RNA
modifications: 2',3'-cyclic phosphate at 3' end
- binding result [5]: binds
- binding result (Cascade- (crRNA-free …) [6]): binds

Binder: AUAAACCGCUGUCUUUCGCUGCUGAGGGUGACGAUCCGCCGAGUU (ssRNA) [crRNA7 (-8/+5)]
- binding result (Cascade- (crRNA-free …) [4]; label: 5'-32P): binds

B5: crRNA MS2 + MS2 dsDNA (mixed)
RNA: AUAAACCGGCACCGACCCCUUUCUGGAGGUACAUAUUCAUGAGUUCCCCGCGCCAGCGGGG
DNA 1: TGAGCCGGCGTCTGATAAAGGCACCGACCCCTTTCTGGAGGTACATATTCATATCAGGCTCCTTACAGGCAG
DNA 2: CTGCCTGTAAGGAGCCTGATATGAATATGTACCTCCAGAAAGGGGTCGGTGCCTTTATCAGACGCCGGCTCA
- binding result (Cascade- (crRNA-free …) [7]): binds
